Data as given in patent US20100273186A1, “SPLIT MUTANT HYDROLASE FUSION REPORTER AND USES THEREOF” (Promega Corporation, priority 2007, published 2010).
Changes are numbered by the printed parent chain. In names and notes the source's numbering stands.

How the values were obtained:
[1] = Fluorescence polarization (FP) labeling assay; type: binding
Description: Fluorescence polarization (FP) is ideal for the study of small fluorescent ligands binding to proteins. It is unique among methods used to analyze molecular binding because it gives direct nearly instantaneous measure of a substrate bound/free ratio. Therefore, an FP assay was developed as an alternative approach to fluorimage gel analysis of the purified DhaA mutants. […] To place this rate in perspective, approximately 42 and 420-fold more A7 and parental, i.e., DhaA.H272F, protein, respectively, was required in the reaction to obtain measurable rates. Under the labeling conditions used, it is evident that the H11YL mutant was also considerably faster than A7 and parental, DhaA.H272F proteins with the fluorescein-based substrate. However, it appears that labeling of H11YL with carboxyfluorescein-C10H21NO2—Cl is markedly slower than labeling with the corresponding carboxytetramethylrhodamine-C10H21NO2—Cl substrate. Four-fold more H11YL protein was used in the carboxyfluorescein-C10H21NO2—Cl reaction (150 nM) versus the carboxytetramethylrhodamine-C10H21NO2—Cl reaction (35 nM), yet the rate observed appeared to be qualitatively slower than the observed carboxytetramethylrhodamine-C10H21NO2—Cl rate.
Based on the sensitivity and truly homogenous nature of this assay, FP was used to characterize the labeling properties of the purified DhaA mutants with the fluorescently coupled substrates. The data from these studies was then used to calculate a second order rate constant for each DhaA mutant-substrate pair. […] However, in each case labeling was slower with the carboxyfluorescein-C10H21NO2—Cl substrate. All of the first generation DhaA mutants characterized by FP had rates that ranged from 7 to 3555-fold faster than the corresponding parental protein. By far, the biggest impact on labeling rate by a single amino acid substitution occurred with the three replacements at the 273 position (Y273L, Y273M, and Y273C) in the DhaA.H272F background. Nevertheless, in each of the first generation DhaA.H272F mutants tested, labeling with the carboxyfluorescein-C10H21NO2—Cl substrate always occurred at a slower rate (1.6 to 46-fold). […] The H11YL rate constant of 2.2×10^6 M^−1 sec^−1 was nearly identical to the rate constant calculated for a carboxytetramethylrhodamine-coupled biotin/streptavidin interaction. This value is consistent with an on-rate of 5×10^6 M^−1 sec^1 determined for a biotin-streptavidin interaction using surface plasmon resonance analysis (Qureshi et al., 2001). Several of the second generation mutants also had improved rates with the carboxyfluorescein-C10H21NO2—Cl substrate, however, as noted previously, these rates were always slower than with the carboxytetramethylrhodamine-C10H21NO2—Cl substrate. […]

[2] = Binding of substrate to DhaA mutants
Description: (§1) Carboxytetramethylrhodamine-C10H21NO2—Cl, carboxyfluorescein-C10H21NO2—Cl, and 5-carboxy-X-rhodamine-C10H21NO2—Cl bound to DhaA.H272F but not to DhaA.WT. Biotin-C10H21NO2—Cl bound to DhaA.H272F but not to DhaA.WT.

[3] = Binding of substrate to DhaA mutants; remark: listed apart in the source
Description: as §1
DhaA.H272 mutants, i.e. H272F/G/A/Q, bound to carboxytetramethylrhodamine-C10H21NO2—Cl.
A control mutant, DhaA.D106Q, single mutants DhaA.D106C, DhaA.D106Y, and DhaA.D106E, as well as double mutants DhaA.D106C:H272F, DhaA.D106E:H272F, DhaA.D106Q:H272F, and DhaA.D106Y:H272F were analyzed for binding to carboxytetramethylrhodamine-C10H21NO2—Cl. Carboxytetramethylrhodamine-C10H21NO2—Cl bound to DhaA.D106C, DhaA.D106C:H272F, DhaA.D106E, and DhaA.H272F. Thus, the bond formed between carboxytetramethylrhodamine-C10H21NO2—Cl and cysteine or glutamate at residue 106 in a mutant DhaA is stable relative to the bond formed between carboxytetramethylrhodamine-C10H21NO2—Cl and DhaA.WT. Other substitutions at position 106 alone or in combination with substitutions at other residues in DhaA may yield similar results. Further, certain substitutions at position 106 alone or in combination with substitutions at other residues in DhaA may result in a mutant DhaA that forms a bond with only certain substrates.

MagneGST-based assay = type: binding
Description: An automated MagneGST™-based assay was used to screen the DhaA mutant protein libraries. […] For clones with at least 50% higher activity than the DhaA.H272F parent, the overall hit rate of the libraries examined varied from between 1-3%. Similar screening results were obtained for the DhaA.D106C libraries (data not shown). The hits identified by the initial primary screen were located in the master plates, consolidated, re-grown and reanalyzed using the MagneGST™ assay. Only those DhaA mutants with at least a 2-fold higher signal than the parental control upon reanalysis were chosen for sequence analysis.
The results of these analyses were consistent with protein labeling studies using SDS-PAGE fluorimage gel analysis. In an effort to determine if combinations of the best mutations identified in the DhaA.H272F background were additive, the three mutations at residue 273 were recombined with the DhaA.H272F A7 and DhaA.H272F H11 mutations. In order to distinguish these recombined protein mutants from the mutants identified in round one of screening (first generation), they are referred to as “second generation” DhaA mutants.

[4] = molecular target: T1, rapamycin-mediated FRB/FKBP protein-protein interaction (Homo sapiens, UniProt P42345+P62942); experiment: Protein complementation labeling (PCL) in vitro with split HT2; type: biochemical; details: with or without 1 μM rapamycin, 0.1 μM TMR ligand
T1 construct: made in house; host or cells: cell-free: RiboMax transcription followed by Wheat Germ Plus translation
T1 sequence (P42345 2012-2144 limits assumed): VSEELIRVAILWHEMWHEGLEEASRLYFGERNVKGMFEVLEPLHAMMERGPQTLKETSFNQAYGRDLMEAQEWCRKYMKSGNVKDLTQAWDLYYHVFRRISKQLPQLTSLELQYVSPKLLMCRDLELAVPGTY
T1 sequence (P62942 whole entry): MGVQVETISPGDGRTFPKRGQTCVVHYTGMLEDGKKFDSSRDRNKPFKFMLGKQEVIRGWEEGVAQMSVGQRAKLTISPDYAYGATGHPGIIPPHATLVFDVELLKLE
Experimental: The rapamycin-mediated FRB/FKBP protein-protein interaction and a mutant DhaA were employed in a PCL. FRB and FKBP will only interact when rapamycin is present. Therefore, if PCL is successful, the reconstituted reporter is labeled only when the fusion proteins are incubated together in the presence of rapamycin.
Two pF9 (Kan) vectors were generated which contained either FRB or FKBP ORF plus the linker sequence (GlyGlyGlyGlySer)2 (SEQ ID NO:14 represents GlyGlyGlyGlySer) upstream of the SefI/PmeI sites. A mutant DhaA gene (HT2) at positions corresponding to those useful to prepare Renilla luciferase fragments for PCS (see Example 2 and FIG. 7) with FRB-N terminal and FKBP-C terminal fusions. HT2 N- and C-termini halves were amplified using PCR primers and cloned into the SefI/PmeI sites. PCL was performed in vitro by expressing each clone individually using RiboMax followed by Wheat Germ Plus reactions (HT2). Protein was expressed with or without FluoroTect™. FluoroTect™ labeling ensured that all proteins were expressed in approximately equal amounts (data not shown). Unlabeled proteins were then incubated alone or with the appropriated partner with or without 1 μM rapamycin. Ten μl of these products were then incubated with 0.1 μM of a TMR labeled ligand for the mutant dehalogenase, for 2 hours in the dark. […]

[5] = Thermostability of mutant DhaAs; type: physicochemical
Experimental: Moreover, V7>V6>V7F>V3>HT2 for thermostability. For example, under some conditions (30 minute exposure to 48° C.) purified V7F loses 50% of its activity, while V7 still maintains 80% activity. The thermostability discrepancy between the two is more dramatic when they V7 and V7F are expressed in E. coli and analyzed as lysates.

[6] = molecular target: T1, rapamycin-mediated FRB/FKBP protein-protein interaction; experiment: PCL in transiently transfected CHO cells; type: cell-based; details: +/−1 μM rapamycin, 1.0 μM HaloTag TMR ligand
Experimental: For transient transfections, CHO cells were plated in a 6 well plate and transfected in duplicate using TransIT®-CHO. The next day, cells were incubated +/−1 μM rapamycin for 2.5 hours followed by 1.0 μM HaloTag® TMR ligand for 1 hour. Cells were washed in PBS, trypsinized, pelleted and mechanically lysed in 200 ul PBS with protease inhibitor and RQDNase I. Normalized amounts of proteins were microwaved for 30 seconds on high and run on a denaturing NuPAGE® gel.

[7] = Kinetic labeling studies, fluorimage gel analysis; type: binding; details: 10 ng protein, refined time-course, fluorimaged gel
Experimental: To facilitate comparative kinetic studies several improved DhaA mutants were selected for purification using a Glutathione Sepharose 4B resin. In general, production of DhaA.H272F and DhaA.D106C based fusions in E. coli was robust, although single amino acid changes may have negative consequences on the production of DhaA. As a result of this variability in protein production, the overall yield of the DhaA mutants also varied considerably (1-15 mg/mL). Preliminary kinetic labeling studies were performed using several DhaA.H272F derived mutants. Many, if not all, of the mutants chosen for analysis had faster labeling kinetics than the H272F parent. In fact, upon closer inspection of the time course, the labeling of several DhaA mutants including the first generation mutant YL and the two second generation mutants, A7YM and H11YL mutants appeared to be complete by 2 minutes. A more expanded time course analysis was performed on the DhaA.H272F A7 and the two second generation DhaA.H272F mutants A7YM and H11YL. […] The fluorescent bands on gel were quantitated and the relative rates of product formation determined. […] Under these labeling conditions a linear initial rate could be measured. Quantitation of the fluorimaged gel data allowed second order rate constants to be calculated. […]

B1: DhaA.H272F: DhaA mutant, catalytic triad His272 replaced with Phe (protein, UniProt P0A3G2 1-293, looked up, variant H272F)
Haloalkane dehalogenase: MSEIGTGFPFDPHYVEVLGERMHYVDVGPRDGTPVLFLHGNPTSSYLWRNIIPHVAPSHRCIAPDLIGMGKSDKPDLDYFFDDHVRYLDAFIEALGLEEVVLVIHDWGSALGFHWAKRNPERVKGIACMEFIRPIPTWDEWPEFARETFQAFRTADVGRELIIDQNAFIEGALPKCVVRPLTEVEMDHYREPFLKPVDREPLWRFPNELPIAGEPANIVALVEAYMNWLHQSPVPKLLFWGTPGVLIPPAEAARLAESLPNCKTVDIGPGLFYLQEDNPDLIGSEIARWLPAL
In the case of B1, the “fold more protein required in the reaction to obtain measurable rates” value ([1]; relative to DhaA.H272F H11YL) is reported as about 420 fold, the “binding to 5-carboxy-X-rhodamine-C10H21NO2—Cl” value [2] is reported as “bound” and the “binding to Biotin-C10H21NO2—Cl” value [2] is reported as “bound”. For the same molecule, the “binding to carboxyfluorescein-C10H21NO2—Cl” value [2] was “bound” and the “binding to carboxytetramethylrhodamine-C10H21NO2—Cl” value [3] was “bound”.

B2: YM: DhaA.H272F based mutant with Y273M (protein, UniProt P0A3G2 1-293, looked up, variant H272F Y273M)
Haloalkane dehalogenase: B1 Haloalkane dehalogenase with Y273M
In the case of B2, the “improvement over the parental clones” value (MagneGST-based assay) is reported as “significantly improved”.

B3: YL: DhaA.H272F based mutant with Y273L (protein, UniProt P0A3G2 1-293, looked up, variant H272F Y273L)
Haloalkane dehalogenase: B1 Haloalkane dehalogenase with Y273L
In the case of B3, the “improvement over the parental clones” value (MagneGST-based assay) is reported as “significantly improved”.

B4: YC: DhaA.H272F based mutant with Y273C (protein, UniProt P0A3G2 1-293, looked up, variant H272F Y273C)
Haloalkane dehalogenase: B1 Haloalkane dehalogenase with Y273C
For B4, the “improvement over the parental clones” value (MagneGST-based assay) was “significantly improved”.

B5: H11YL: second generation DhaA.H272F mutant, H11 recombined with Y273L; SEQ ID NO:18 (protein)
chain: SEIGTGFPFDPHYVEVLGERMHYVDVGPRDGTPVLFLHGNPTSSYLWRNIIPHVAPSHRCIAPDLIGMGKSDKPDLDYFFDDHVRYLDAFIEALGLEEVVLVIHDWGSALGFHWAKRNPERVKGIACMEFIRPIPTWDEWPEFARETFQAFRTADVGRELIIDQNAFIEGALPMGVVRPLTEVEMDHYREPFLKPVDREPLWRFPNELPIAGEPANIVALVEAYMNWLHQSPVPKLLFWGTPGVLIPPAEAARLAESLPNCKTVDIGPGLFLLQEDNPDLIGSEIARWLPAL
In the case of B5, the TMR labeling [4] is reported as “labeled”, the thermostability ranking [5] is reported as “V7>V6>V7F>V3>HT2” and the “carboxyfluorescein-C10H21NO2—Cl labeling rate slower/lower than carboxytetramethylrhodamine-C10H21NO2—Cl labeling rate” value [1] is reported as 100 fold. For the same molecule, the “calculated second order rate constant” value ([1]; FP) was 2.2e+06 M⁻¹ s⁻¹, the “second order rate constant compared with the DhaA.H272F parent” value ([1]; FP) was “over four orders of magnitude higher” and the “TMR labeling in CHO cells” value [6] was “labeled irrespective of rapamycin addition”. For the same molecule, the “second order rate constant for labeling” value [7] was 500000 M⁻¹ s⁻¹.
